The domain aggregation screens of Martell et al. (2025)

Assay: soluble fraction after stress (log2 fold change); higher = more stays soluble; pooled small domains, quantitative proteomics
Conditions: stress: 50 degC
Summary of the method: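 Each library was heated to 50°C as a stress step. The libraries, made up of small protein domains, were pooled and analysed at high throughput by quantitative proteomics. The reported value is the base-two logarithm of the fold change in each protein's soluble amount after stress, taken as a measure of aggregation propensity. The higher the value, the more protein stays in solution.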

Sequence | soluble fraction (log2)
HMKEEVSVPDIKGMTYEEAEAKLAKYDLEIEKGETVKASEQYEEGQISSQEPEAGSKVKEGSTIVVDVVE | 0.316
HMDGEMRRKRILQLLSEQTKPLSGTALAKQFGVSRQVIVQDIALLKSKEPAIISTYRGYVLGR | -0.607
HMSHRVGDVVELTAVRMNDQGVFLDAGTGNTSDDILLHKHQMTSPVSVGDKVKVQLYLDAKNRITASMKL | -0.000204
HMEKLPRYILPGVPKVKSINISSALDGLVQDYSREFNISQKDIFQIALVEFFKKYGYHNAVKAVL | -0.314
HMKYTVKSPLPGVIMSVLVKVGDTVKASDTVISLEAMKMENAIHAGRDGKVTSIDVNVGDSVLEGHTLVTI | -0.386
HMSAPVFRITPAGVVVNGLKRSDILTLTRIDGAMNTLPHNAGEVLVSTEGLAKGVYVITAGGKSLKFLV | -1.36
HMNEPMITEVKRINYGSIKEIAKNLDVFKGKNGTVIIDERTNTLILTDLSENIEKMLWSIEITD | -0.896
HMVTDVDELEKLIQKVLDSNSSQVDEYRQGKEKVFGFFVGAVMKLTKGQADPDVVNQLLKEKLSGRK | 0.195
HMIKLTVRQQEILDLIARSIDQTGFPPTRAEIAAELGFKSVNAAEEHLQALARKGVIEMVPGISRGIRLVQ | -0.395
HMLPVFNYQVYRTHGLIYVYAKDNDSFDQIARSMGFKAKQLMKFNEVPEDFPLQAGDIVYLEKKKK | -1.42
HMSNLKKRRLEKNLTLDDVGKLVGVSAATISRWESGDIENMRSDKIVKLANALEISPAVILGW | -0.0215
HMVSLSNQVFEKIEYDILSGKYKIGEIISEKRLSSELGVSRTPIREALGRLSEEGLVGDSPSGTVVLGI | -0.431
HMLGSVRTIRQVLDDGRLIVADGGGNPSVIRRSGALAHETFANGQRVIVDPSGRLALELLPD | 0.314
HMTGNWRQMHKVKSKETIYGIAKEYGITVDELTKANPGMEAPGYTLKKGDYIFIPYATADANV | 0.399
HMESGFEAVREVARHGSFANAAKALGVSGPAVSRQVKSLEERLGLVFFHRTTRMVTLTEAGQQLVDTLD | -0.00498
HMERLKKYLDDVRTFLPGTNPKKVDEILREIESHVLERAEREHGEVNDNAVAMSIKEYGSPEEVAARYYEG | 0.194
HMHQAADFAGFITFNKDGVEQFSFGKYKNQTVVSVLEKDPGYYSWIQNADFPLYTKKILTAIRLAM | -0.577
HMSSTPEPPQAVLDLVNLREQARAGKDWTQSDAFRQQIAALGWTVKDTKDGPVVSLSPTTTE | 0.0968
HMAPAGGITRQDLFAWGLMGGEGSREKRQQLKKSLGLPSHLGTSGFLDALNLIATRDQVEALLHK | -0.15
HMKLEEITIIVPSLRLDNFVSDLARTSRSKAVQIIDSERVFINGQNETKASKQVKLGDVITSA | -0.277
HMGSQLYTLEVEADEKISLIENNPLLIQKIYLKDNNLFSYKIASSSKTEIASIEKELEKNPSIKRLETA | -0.181
HMGTGIKQVNVVSVIGQDEETAKTTLTNLGLKVNVTYATSTSDNGKVTKQSIDAGKTVDEGTSVTITVNKV | 0.241
HMVKNTIHVDLKGEVNKPGVYEVEEGTIVNDLITLANGFTKNAYQDNINLSKKLTDEMVIVVSKKGS | 0.337

Sequence | soluble fraction (log2)
HMHQALLEQSAEHAQQVKAYELLLTAERALDEENTEAFLSAMKSLKPLAENLDAKGKALYQELLPFVTEA | -0.0088
HMVQMNMLELQEEMQRDRSWIIKHLFQDEYFRRKIAKFSQFPINDSGKYLFHRKSMLKFLNDYAEEIVER | -2.56
HMDNPVPVIITDQNFQPQLWKNVGVPTDTLFHELSAANQRKLENLMKTMIQTPLTDNGKISGYAFYSK | 0.0665
HMESFGVAIKRLREAQGWTRADFLRQLGKTGYYMHATTLKRIEEGEQIAKVHEAVIISRLFGVTVEEMG | -2.94
HMDRVTYPVSFNGKVRFQLELDAGMNAKEVETAALGHEKTAAQIEGKTIRKVIVVPGRIINIVV | -0.259
HMTTHEQVAILRRELNGLVGAWHHRTGQAHGVTHSKLRKELGGPPAAVASAAQLSARIEKIRQWAT | -0.635
HMTGTKEQQVVMLNNILQKQLQAFELQGKRDYPMVTMKNMYNTLSKMVENAGLQTVESYFVDPIKGQQM | -0.0334
HMVYFDDEELDRFAGRAADSYTSDETDEFRDVMLTLLPADVMPWTQSIEMRGILLPEQLRDELLML | -0.764
HMPGPAEMPGWITARAKKLGGQITPEAARALAAEMGSDTEQASREIEKLLTYVDYRRPVEEEDVALLTA | -0.0046
HMRTITYSITPAHAGMSVERYLKQQHGYSTRTLVKLKHYPQGLQLNGQHARTVDLLQAGDTLAVTFLD | -0.552
HMIDLSELINKTGSAYTNLRPSGTAVIGDDRVDVVTEGTFVEKDRPVKVVAVEGQRVVVREVE | 0.178
HMKSSLAKNLETLMQERQISQTRLSKISGVSQSYIFKILNDQIKKPSLDTLEKLATALDSTVAQLNH | -0.00953
HMAVLFFVKRGERILGPTRLADLFQHAASGRLRANDLVGESPKGPWLPARQLDELEDAWASSRDATEAAAA | 0.251
HMEIEEIDYGTFLQMVEDGVVEKIELTDTQIFLTSTVDNDDKVYTTGVMPDQDLTNRLIEAGVVNFGKVV | -0.21
HMKPTVKVPNVVNLSLRNAQIQLQNYGLEVGSISYESSRFKNAVLRQSISEGSVVEKGTTINLVISDGL | -0.203
HMVEGTVKWFNDEKGFGFIEQEGGKDVFVHFSAINGSGRRTLHEGQRVTMEVTQGQKGPQAENVNP | 0.181
HMELRIREILESKDIKVSSLAETVGITRANMSNIVNGKSTPSLETLEKIANALGVDITELFA | 0.116
HMTIPRLPFAFAKRFGIVLDNRPSGFVAAHKEGLLPHVLLEVQRFLGDAYTLEVVSDDDFERILGQVYQT | -3.27
HMFPDRLRELRKGRNITLETLAEEMNKHLEPGQKPNTAAQIGNWERGDRSPSYIEVRKLADFFNVSMDFL | -0.636
HMNNDFIVKSTDSHKVNLRSQPDTHADIIKRLDDHTIVEKLKTVRKNWYLVQLKDTTTQGYVHKSQLERV | -0.0413
HMSLIHEQSLKEIRIFINNLPESLRTAFTLREQDGLSYEEISKITDTPIGTVRSRIFRARESILEHINEEL | -1.89
HMFYLPEPLTEQELRILGMLLDGRSNPEIAAELFIAVGTAKWHVHNILQKLGVANRAQAIVKAHELGLT | -1.91
HMVAGPDEPLSDREQGVLDLLAEGLSNKAISKQLGISVATVKSHLSNIYGKLQAENRMQAVARARELGLM | ≥ 0.62

Sequence | soluble fraction (log2)
HMRSVEVAAEPGMVLEDRQTGFVGAVVAVEKSGGTHLVVLEDRHGLRRGFPLGPGFWLEGRPVVLAPPP | -0.227
HMSIQREIILEVIKNNRTHPTAEEIYILVTKKEPKISRSTVYRNINILVEKGIIEKITIATGPDRYDY | -1.4
HMGMSMNEFLNNRLEQLAVEAVDKSSLGEEIFFYAEPATINLFKDAVDEDEYKVVFPVLKSIIEVEQKLSR | -1.03
HMNFIPGEKINLKIVQEGKEKNQGVGYLSDGTMVIVENGSQKLGQDVEVVVIKNIQSSAGKIVFGDISK | 0.0978
HMEETLLLRESVRSALAMLAPTLRITLEMYVYRQLSPTEIALRSGVSISMVRRRLGYGLYKLRTQLIDA | -0.138
HMNNENELSSIISKVLEENPAEKERFLNGEKKLAGFFMGKIMKATKGTADPKKAAQLLNEIL | 0.295
HMNYKNAIGQVGSVYVPIPPNREGLGQIEVKVQSRVSTVRAVSDHSERLENRVAVRVIELVDDRTLLVEKL | -0.839
HMKSAIGEEKAENFAFADLGMDPLSAEGVRTEFGFEQGQFVYKVYFTADGTEYEYWIKASDGSVVKKGMDL | -0.891
HMDQESFGYFHVKYADVKQVADLVQKLNIPAVTWADERTRRLVALGSPATLQRISQVLNMVDL | -0.721
HMGVKTDKYYYQMATETRVNKHYGLSNQYIATLISEYPRSPLIPNASILSKKNNADLALIDQSINQR | -0.397
HMSGPDGLTEREIEVLRLLASGLSNRAIGERLYISTNTAANHVRSILLKTGAANRTQAAMYAADHEML | -1.37
HMTTIPAGRQQYILSLIRREGTVTVSRLAQELEVSELTIRRDLDQMAARNLVERTHGGATERR | -0.138
HMTVSADQTTADAVIKLIDAIGTVSKNSGSAISAARSGYDALTDAQKKLVTNYNKLTQAEQVFSSLS | 0.129
HMALSVRNRMSDLLRMLGDGEFHRFENLFSLEEGRHGIVVTFLAMLELAKEQLVEISQGESLAPIYLKSLA | -0.716
HMDVPNLVGKTLEEAENELKKLNIRYNVTERADEAPKDTVIEQSPKPYEAMEPGTVVNLVISSGPA | 0.533
HMGMAGILDSARMASFIQEKLGYGGGQIRASVMGGHGDDMVPLPRYSTVAGVPLSDVLTQNEIDEMFAQ | -0.0615
HMVEVPNVSNLTLEQAENKLIQQGLQVKLEGQGEKVVAQIPQPGAVVNKKSTVILF | 0.129
HMDFMNSEIKKIVEDLKLTLQSLNYTKNEIKSILPVINKETDNLIKKEKYASFENLLRLAMNHLDNN | -0.462
HMHIVQEGDSLYGIARQYRITVEELRSLNALETADVIVPYQKLYV | -0.942
HMSFGWESLENKEGVADTDLHPSGWVRIEDSRIFVVSEGDFINKGSKVTVLTVDGNRVVVRELI | -0.522
HMQADPYTVLGVLRDVTDGELKREYRKLVREHHPDALIAQGVPQEFVDIANNKLAVINAAYERIAKQRGL | 0.00775
HMSDYLGSLSHEEKMIFNHFDEDSSTIENMAKKTELKPELISQIFLNLELRGFLRQTEGGLYEKI | -0.000348
HMDEFTIILEDAGSQKIAVIKEVRVLNSSLGLKEAKDLVDATPATIMEKADKATADKAKAAFEAAGAKVTI | -0.22
